The values that follow come from US6469153 (TRUSTEES OF COLUMBIA UNIVERSITY IN THE CITY OF NEW YORK, dated 2002).

Where two headings read alike, the source gives them in different places.

The target of assay [1] is Envelope protein (TM) on amphotropic N2 virus (amphotropic murine retrovirus). Put plainly: cell-based or functional assay.
Assay [2] shares this target. Put plainly: cell-based or functional assay. This is another data set of the same source.
In assay [3] the target is Envelope protein (TM in the context of the whole envelope protein) on intact ecotropic N2 virus (Moloney murine leukemia virus) (UniProt P03385). The assay can be described thus: cell-based or functional assay.
Assay [4] concerns the target T1, Envelope protein (TM in the context of the whole envelope protein) on intact ecotropic N2 virus (Moloney murine leukemia virus, UniProt P03385 34-649, limits assumed).
T1 sequence (looked up): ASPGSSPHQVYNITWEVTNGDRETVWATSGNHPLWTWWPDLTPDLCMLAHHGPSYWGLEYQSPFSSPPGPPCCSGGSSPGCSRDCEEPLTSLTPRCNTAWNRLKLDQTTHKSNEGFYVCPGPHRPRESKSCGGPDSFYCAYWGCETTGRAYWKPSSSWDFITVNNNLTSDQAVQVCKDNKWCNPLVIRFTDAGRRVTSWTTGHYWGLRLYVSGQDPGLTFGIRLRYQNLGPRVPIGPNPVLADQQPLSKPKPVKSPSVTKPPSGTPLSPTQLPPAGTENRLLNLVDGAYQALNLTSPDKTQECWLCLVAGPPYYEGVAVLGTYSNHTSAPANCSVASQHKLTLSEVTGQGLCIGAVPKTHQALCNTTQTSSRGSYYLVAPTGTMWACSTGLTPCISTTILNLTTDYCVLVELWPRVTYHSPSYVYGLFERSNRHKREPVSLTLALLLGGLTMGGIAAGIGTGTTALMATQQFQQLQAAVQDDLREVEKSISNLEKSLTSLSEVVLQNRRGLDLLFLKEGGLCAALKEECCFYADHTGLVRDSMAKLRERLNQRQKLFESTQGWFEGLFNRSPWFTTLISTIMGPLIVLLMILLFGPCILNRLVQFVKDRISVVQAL
The assay can be described thus: cell-based or functional assay.

Assay [5] concerns the target T1, Envelope protein (TM in the context of …). The assay can be described thus: depletion of N2 virus by GST-EIP-1 beads; titer of remaining virus. On the procedure:
EIP-1 to EIP-5 have been examined using this assay to directly measure the binding of EIPs to the intact virus. In this binding assay, virus is mixed with GST-EIP-agarose beads and incubated for 2 hours. After incubation, the mixtures are centrifuged, and the supernatants are used to transduce fresh NIH3T3 cells. After two days, cells are split into G418-containing medium. Ten to twelve days later, colonies are counted. If the virus binds to EIPs, virus is retained on agarose beads leading to a reduction in virus titer in supernatant. […] In control samples, virus was incubated with GST-agarose beads or beads alone, and no change in virus titer was observed (Table 2).
Whether EIP-1 could interact with TM on the native virion particle was tested. GST-EIP-1 beads were incubated with preparations of a virus vector (N2) containing the neoR gene and pelleted, and the titer of the remaining virus was determined to test for depletion of infectivity from the stock. Whereas beads alone, beads containing GST, or beads with control GST fusions had no effect on the titer, beads with GST-EIP-1 could consistently reduce the titer approximately 4-fold.

For GST-EIP-1 (from UniProt Q9JI44 1-468), the increase of titer of amphotropic viruses titered on human cells in assay [1] was 5 to 8 fold.
In assay [1], GST-EIP-1A (from UniProt Q9JI44 1-468) showed a Fold Increase (amphotropic N2 virus on NIH3T3 cells) of 7 fold; a Neo^r Colonies, 1:1 (amphotropic N2 virus on NIH3T3 cells) of 854 colonies; a Neo^r Colonies, 1:5 (amphotropic N2 virus on NIH3T3 cells) of 136 colonies. In assay [2], the Fold Increase (amphotropic N2 virus on NIH3T3 cells) amounted to 8 fold; the Neo^r Colonies, Amphotropic N2 virus 5 µl (1:10), NIH3T3 cells was 854 colonies; the Neo^r Colonies, Amphotropic N2 virus 5 µl (1:25), NIH3T3 cells worked out at 136 colonies.
For GST-EIP-1B (from UniProt Q9JI44 1-468), in assay [3], the Fold Increase (ecotropic N2 virus on NIH3T3 cells) was 30 fold; the Neo^r Colonies, 1:1 (ecotropic N2 virus on NIH3T3 cells) was over 1000 colonies; the Neo^r Colonies, 1:5 (ecotropic N2 virus on NIH3T3 cells) was 353 colonies. In assay [1], this molecule came in with a Fold Increase (amphotropic N2 virus on Hela cells) of 6 fold; a Fold Increase (amphotropic N2 virus on NIH3T3 cells) of 5 fold; a Neo^r Colonies, 1:1 (amphotropic N2 virus on NIH3T3 cells) of 403 colonies; a Neo^r Colonies, 1:5 (amphotropic N2 virus on NIH3T3 cells) of 102 colonies. The Neo^r Colonies, Amphotropic N2 virus 5 µl (1:25), Hela cells in assay [1] was determined as 594 colonies. In assay [2], the Fold Increase (amphotropic N2 virus on NIH3T3 cells) was found to be 6 fold; the Neo^r Colonies, Amphotropic N2 virus 5 µl (1:10), NIH3T3 cells came out at 403 colonies; the Neo^r Colonies, Amphotropic N2 virus 5 µl (1:25), NIH3T3 cells is 102 colonies.
In assay [3], GST-EIP-2 (from UniProt P08515 1-218) gave a CFU/2 ul virus (Neo^r colonies after incubation of virus with purified protein, 1 µg/ml, 37° C., 1 h) of 24 CFU; a CFU/10 ul virus (Neo^r colonies after incubation of virus with purified protein, 1 µg/ml, 37° C., 1 h) of 69 CFU; a Fold Increase (ecotropic N2 virus on NIH3T3 cells) of 1 fold; a Neo^r Colonies, 1:1 (ecotropic N2 virus on NIH3T3 cells) of 69 colonies. Besides, in assay [3], the Neo^r Colonies, 1:5 (ecotropic N2 virus on NIH3T3 cells) turned out to be 24 colonies and the Ratio (enhancement of virus infectivity) came to 1.

B1: GST-EIP-1 (other)
chain: MATGADVRDILELGGPEGDAASGTISKKDIINPDKKKSKKSSETLTFKRPEGMHREVYALLYSDKKDAPPLLPSDTGRGHRTVKAKLGSKKVRPWKWMPFTNPARKDGAMFFHWRRAAEEGKDYPFARFNKTVQVPVYSEQEYQLYLHDDAWTKAETDHLFDLSRRFDLRFVVIHDRYDHQQFKKRSVEDLKERYYHICAKLANVRAVPGTDLKIPVFDAGHERRRKEQLERLYNRTPEQVAEEEYLLQELRKIEARKKEEKRSQDLQKLITAADTTAEQRRTERKAPKKKLPQKKEAEKPAVPETAGIKFPDFKSAGVTLRSQRMKLPSSVGQKKIKALEQMLLELGVELSPTPTEELVHMFNELRSDLVLLYELKQACANCEYELQMLRHRHEALARAGVLGAPAAAAVGPTPASAEPTVSESGLGLDPTKDTIIDVVGAPLTPNSRKRRESASSSSSVKKAKKP
notes: It was used on glutathione agarose beads or eluted as soluble protein; also called EIP-1 fused with glutathione S-transferase; not shown: glutathione S-transferase (GST)
Turning to B1, the “Ratio (enhancement of virus infectivity)” value in assay [4] worked out at 30 ratio. In addition, the “fold reduction of the titer of remaining virus” value in assay [5] is about 4 fold.
